Legend:
[1] = test system: P. aeruginosa strain ATCC 17647; assay: Minimal Biofilm Eradicating Concentration (MBEC), Calgary Biofilm Device; assay type: cell-based, Pseudomonas aeruginosa; conditions: 24 h biofilm, 24 h treatment; minimum concentration removing >95% of biofilm biomass (crystal violet)
Text: All samples were examined in triplicate.

P. aeruginosa [2] = assay: Time-kill assay of GN lysin activity; assay type: cell-based, Pseudomonas aeruginosa; conditions: lysin 10 μg/mL, T = 0 7.8; for Log10 CFU/mL T = 3 hr: buffer control 7.2, limit of detection 3.7; for Log10 CFU/mL T = l hr: buffer control 7.7
Protocol: All treatments were incubated at 37° C. with aeration.

[3] = test system: carbapenem-resistant clinical strain, WC-452; assay: Checkerboard assay to examine synergy with antibiotics in CAA/HuS; assay type: cell-based, P. aeruginosa; conditions: for FICI, Amikacin: lysin + amikacin; for FICI, Azithromycin: lysin + azithromycin; for FICI, Aztreonam: lysin + aztreonam; for FICI, Ciprofloxacin: lysin + ciprofloxacin; for FICI, Colistin: lysin + colistin; for FICI, Fosfomycin: lysin + fosfomycin; for FICI, Gentamicin: lysin + gentamicin; for FICI, Imipenem: lysin + imipenem; for FICI, Piperacillin: lysin + piperacillin; for FICI, Rifampicin: lysin + rifampicin; for FICI, Tobramycin: lysin + tobramycin; for FICI, Meropenem: lysin + meropenem
Protocol: Fractional inhibitor concentration index (FICI) values were determined for all combinations; values of <0.5 indicate synergy.
The checkerboard assays is based on a modification of the CLSI method for MIC determination by broth microdilution (26, 29). Checkerboards were constructed by first preparing columns of a 96-well polypropylene microtiter plate, in which each well had the same amount of antibiotic diluted 2-fold along the horizontal axis. […] Summation fractional inhibitory concentrations (ΣFICs) were calculated for each drug and the minimum ΣFIC value (ΣFICmin) was used to determine synergy. ΣFICs were calculated as follows: ΣFIC=FIC A+FIC B, where FIC A is the MIC of each antibiotic in the combination/MIC of each antibiotic alone, and FIC B is the MIC of each GN lysin in the combination/MIC of each GN lysin alone. The combination is considered synergistic when the ΣFIC is ≤0.5, strongly additive when the ΣFIC is >0.5 to <1, additive with the ΣFIC is 1−<2, and antagonistic when the ΣFIC is ≥2.

P. aeruginosa [4] = assay: Minimal inhibitory concentration (MIC), modified CLSI broth microdilution in CAA or CAA/HuS; assay type: cell-based, Pseudomonas aeruginosa; conditions: for MIC (μg/mL) in CAA: CAA media; for MIC (μg/mL in CAA/HuS) / MIC value in CAA/HuS: CAA supplemented with 25% human serum
[5] = CAA/HuS, ‡ indicates bactericidal activity
[6] = HEPES buffer, ‡ indicates bactericidal activity

Row | Molecule | MBEC [1] | Log10 CFU/mL T = 3 hr (P. aeruginosa [2]; [5]) | Log10 CFU/mL T = l hr (P. aeruginosa [2]; CAA/HuS) | Log10 CFU/mL T = 3 hr (P. aeruginosa [2]; [6]) | Log10 CFU/mL T = l hr (P. aeruginosa [2]; [6]) | synergy with antibiotics in the checkerboard assay [3] | FICI, Amikacin [3] | FICI, Azithromycin [3] | FICI, Aztreonam [3] | FICI, Ciprofloxacin [3] | FICI, Colistin [3] | FICI, Fosfomycin [3] | FICI, Gentamicin [3] | FICI, Imipenem [3] | FICI, Piperacillin [3] | FICI, Rifampicin [3] | FICI, Tobramycin [3] | MIC (μg/mL) in CAA (P. aeruginosa [4]) | MIC (μg/mL in CAA/HuS) (P. aeruginosa [4]) | MIC value in CAA/HuS (P. aeruginosa [4]) | also measured
1 | GN4: Native lysin, YP_002284361.1/Lysozyme, SEQ ID NO: 3; first disclosed in WO/2017/049233 (protein, Pseudomonas phage PAJU2) MRTSQRGIDLIKSFEGLRLSAYQDSVGVWTIGYGTTRGVTRYMTITVEQAERMLSNDIQRFEPELDRLAKVPLNQNQWDALMSFVYNLGAANLASSTLLKLLNKGDYQGAADQFPRWVNAGGKRLDGLVKRRAAERALFLEPLS | 1 µg/mL | <3.7‡ Log10 CFU/mL | 6.0 Log10 CFU/mL | <3.7‡ Log10 CFU/mL | 5.7 Log10 CFU/mL | synergize with a range of antibiotics | 0.531 | 0.094 | 0.156 | 0.250 | 0.156 | 0.250 | 0.375 | 0.125 | 0.313 | 0.156 | 0.375 | 64 µg/mL | 16 µg/mL | 16 µg/mL | –
2 | GN147: Modified GN3, amino acid substitutions (R101D, R117H), SEQ ID NO: 5 (protein) MRTSQRGLSLIKSFEGLRLQAYQDSVGVWTIGYGTTRGVKAGMKISKDQAERMLLNDVQRFEPEVERLIKVPLNQDQWDALMSFTYNLGAANLESSTLRDLLNAGNYAAAAEQFPHWNKAGGQVLAGLTRRRAAERELFLGAA | 0.25 µg/mL | 4.2‡ Log10 CFU/mL | 6.5 Log10 CFU/mL | <3.7‡ Log10 CFU/mL | <3.7‡ Log10 CFU/mL | synergize with a range of antibiotics | 0.375 | 0.250 | 0.188 | 0.281 | 0.188 | 0.250 | 0.375 | 0.375 | 0.188 | 0.281 | 0.5 | 2 µg/mL | 4 µg/mL | 4 µg/mL | FICI, Meropenem [3]: 0.375
3 | GN37: Native lysin, WP_014102102.1/VanY, SEQ ID NO: 12; first disclosed in WO/2017/049233 (protein, listed as Micavibrio aeruginosavorus) MTYTLSKRSLDNLKGVHPDLVAVVHRAIQLTPVDFAVIEGLRSVSRQKELVAAGASKTMNSRHLTGHAVDLAAYVNGIRWDWPLYDAIAVAVKAAAKELGVAIVWGGDWTTFKDGPHFELDRSKYR | 0.25 µg/mL | <3.7‡ Log10 CFU/mL | 6.2 Log10 CFU/mL | <3.7‡ Log10 CFU/mL | 6.3 Log10 CFU/mL | synergize with a range of antibiotics | 0.125 | 0.188 | 0.531 | 0.281 | 0.156 | 0.313 | 0.313 | 0.313 | 0.375 | 0.281 | 0.156 | >128 µg/mL | 32 µg/mL | 32 µg/mL | FICI, Meropenem [3]: 0.500
4 | GN92: Modified GN4, N-terminal peptide KFFKFFKFFK with linker, SEQ ID NO: 7 (protein) KFFKFFKFFKAGAGAGAGAGAGAGAGASMRTSQRGIDLIKSFEGLRLSAYQDSVGVWTIGYGTTRGVTRYMTITVEQAERMLSNDIQRFEPELDRLAKVPLNQNQWDALMSFVYNLGAANLASSTLLKLLNKGDYQGAADQFPRWVNAGGKRLDGLVKRRAAERALFLEPLS | 0.5 µg/mL | <3.7‡ Log10 CFU/mL | 6.2 Log10 CFU/mL | <3.7‡ Log10 CFU/mL | 5.7 Log10 CFU/mL | synergize with a range of antibiotics | 0.375 | 0.063 | 0.188 | 0.281 | 0.094 | 0.500 | 0.375 | 0.125 | 0.500 | 0.094 | 0.500 | 32 µg/mL | 4 µg/mL | 4 µg/mL | FICI, Meropenem [3]: 0.375
